Test results reported in paper PMC7524730.
Like-named read-outs stand apart in the source and are kept apart here.

Assays:
PRMT5 = PRMT5 (UniProt O14744); assay: co-IP and immunoblot; details: reference: LSH wild type; sites S503

In the case of “LSH (lymphoid-specific helicase; HELLS) (from UniProt Q9NRZ9) LSH S503A”, the “binding against the reference” value (PRMT5) is reported as “stronger”.

With “LSH (lymphoid-specific helicase; HELLS, PASG, SMARCA6): Lambda Protein Phosphatase (λPP)” the other (phosphorylation at S503) was “increases”.

For “LSH (lymphoid-specific helicase; HELLS, PASG, SMARCA6): MAPK1 shRNA knockdown; LY3214996 (MAPK1/2 inhibitor)”, the other (phosphorylation at S503) was “increases”.

For “LSH (lymphoid-specific helicase; HELLS, PASG, SMARCA6): R309A”, the localisation_or_trafficking (methylation at R309) was “no change” and the other (methylation at R309) was “increases”.

With “LSH (lymphoid-specific helicase; HELLS, PASG, SMARCA6): R507A” the other (methylation at R507) was “no change”.

In the case of “LSH (lymphoid-specific helicase; HELLS, PASG, SMARCA6): R541A”, the other (methylation at R541) is reported as “no change”.

For “LSH (lymphoid-specific helicase; HELLS, PASG, SMARCA6): S503A”, the localisation_or_trafficking (phosphorylation at S503) was “no change” and the other (phosphorylation at S503) was “increases”.

In the case of “LSH (lymphoid-specific helicase; HELLS, PASG, SMARCA6): S503D phosphomimic”, the other (phosphorylation at S503) is reported as “decreases”.
